Results on one substance are retold here after article PMC12855784.

Holding throughout (assay): SEC-MALS
(SEC sorts molecules by how far they enter the pores of the column.)

Experiment [1] deals with Streptococcus pyogenes Cas9, full length, 6×His tagged (Streptococcus pyogenes) (UniProt Q99ZW2).
In experiment [2] the target is AcrIIA19 (full length, C-terminal 6×His tag) (Staphylococcus pseudintermedius).
Experiment [3] shares this target. The source holds these as a separate data set.

Like-named read-outs stand apart in the source and are kept apart here.

UniProt Q99ZW2, sequence (Q99ZW2 whole entry): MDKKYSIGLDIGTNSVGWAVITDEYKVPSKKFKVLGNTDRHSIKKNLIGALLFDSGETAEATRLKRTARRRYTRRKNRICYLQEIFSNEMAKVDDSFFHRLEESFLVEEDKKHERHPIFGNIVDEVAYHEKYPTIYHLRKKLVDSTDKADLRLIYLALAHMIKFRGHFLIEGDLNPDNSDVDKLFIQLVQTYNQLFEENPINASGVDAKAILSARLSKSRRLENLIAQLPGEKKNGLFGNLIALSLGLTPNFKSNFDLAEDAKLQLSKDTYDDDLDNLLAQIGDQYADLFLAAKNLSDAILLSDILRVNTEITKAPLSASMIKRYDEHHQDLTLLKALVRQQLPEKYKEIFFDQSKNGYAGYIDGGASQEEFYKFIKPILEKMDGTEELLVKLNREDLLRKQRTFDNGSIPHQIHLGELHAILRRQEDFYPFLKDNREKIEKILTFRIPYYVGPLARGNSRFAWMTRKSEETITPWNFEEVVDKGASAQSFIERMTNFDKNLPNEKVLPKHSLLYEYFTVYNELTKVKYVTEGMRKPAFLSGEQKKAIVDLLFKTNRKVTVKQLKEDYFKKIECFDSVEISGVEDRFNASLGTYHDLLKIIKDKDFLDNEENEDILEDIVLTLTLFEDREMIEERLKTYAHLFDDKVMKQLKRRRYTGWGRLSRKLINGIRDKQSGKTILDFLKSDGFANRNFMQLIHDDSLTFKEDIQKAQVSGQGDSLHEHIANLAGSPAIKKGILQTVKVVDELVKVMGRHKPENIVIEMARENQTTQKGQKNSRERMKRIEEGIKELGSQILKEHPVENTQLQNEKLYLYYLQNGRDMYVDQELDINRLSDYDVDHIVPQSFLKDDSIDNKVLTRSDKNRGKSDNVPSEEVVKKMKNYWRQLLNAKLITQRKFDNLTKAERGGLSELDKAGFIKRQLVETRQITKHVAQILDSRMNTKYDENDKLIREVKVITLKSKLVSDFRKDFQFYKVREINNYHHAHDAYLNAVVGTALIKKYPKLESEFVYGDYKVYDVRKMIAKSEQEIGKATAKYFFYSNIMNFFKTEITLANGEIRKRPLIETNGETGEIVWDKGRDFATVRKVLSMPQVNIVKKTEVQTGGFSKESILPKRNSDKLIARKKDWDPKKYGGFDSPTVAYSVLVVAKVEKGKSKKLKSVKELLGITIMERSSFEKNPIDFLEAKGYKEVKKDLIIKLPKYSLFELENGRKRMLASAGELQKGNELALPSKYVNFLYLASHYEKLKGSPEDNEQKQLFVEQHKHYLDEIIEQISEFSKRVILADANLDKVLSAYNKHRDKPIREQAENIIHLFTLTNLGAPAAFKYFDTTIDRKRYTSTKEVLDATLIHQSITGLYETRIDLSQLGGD

A word on the stoichiometry N: it is a count of units in the complex or per binding partner. Turning to “AcrIIA19 (full length, C-terminal 6×His tag) (natural protein)”, the stoichiometry N (AcrIIA19 per Cas9) in experiment [1] was found to be 1. For the same substance, the stoichiometry N in experiment [2] and in experiment [3] was 2 throughout.
